# Measured values reported in US20190054182A1.
# Read-outs that look alike come from different tables or passages of the source.
# B1: MPER Ab (antibody, V domains shown)
# VH: EVRLVESGGGLVKPGGSLRLSCSASGFDFDNAWMTWVRQPPGKGLEWVGRITGPGEGWSVDYAESVKGRFTISRDNTKNTLYLEMNNVRTEDTGYYFCARTGKYYDFWSGYPPGEEYFQDWGQGTLVIVSS
# VL: ASELTQDPAVSVALKQTVTITCRGDSLRSHYASWYQKKPGQAPVLLFYGKNNRPSGIPDRFSGSASGNRASLTITGAQAEDEADYYCSSRDKSGSRLSVFGGGTKLTVL
# B2: V1/V2 directed Ab “b” (antibody, V domains shown)
# VH: QVQLVESGGGVVQPGTSLRLSCAASQFRFDGYGMHWVRQAPGKGLEWVASISHDGIKKYHAEKVWGRFTISRDNSKNTLYLQMNSLRPEDTALYYCAKDLREDECEEWWSDYYDFGKQLPCAKSRGGLVGIADNWGQGTMVTVSS
# VL: QSVLTQPPSVSAAPGQKVTISCSGNTSNIGNNFVSWYQQRPGRAPQLLIYETDKRPSGIPDRFSASKSGTSGTLAITGLQTGDEADYYCATWAASLSSARVFGTGTKVIVL
# B3: V1/V2 directed Ab “a” (antibody, V domains shown)
# VH: QVHLTQSGPEVRKPGTSVKVSCKAPGNTLKTYDLHWVRSVPGQGLQWMGWISHEGDKKVIVERFKAKVTIDWDRSTNTAYLQLSGLTSGDTAVYYCAKGSKHRLRDYALYDDDGALNWAVDVDYLSNLEFWGQGTAVTVSS
# VL: DFVLTQSPHSLSVTPGESASISCKSSHSLIHGDRNNYLAWYVQKPGRSPQLLIYLASSRASGVPDRFSGSGSDKDFTLKISRVETEDVGTYYCMQGRESPWTFGQGTKVDIK
# B4: Binding Protein 2 (protein)
# light 1: DFVLTQSPHSLSVTPGESASISCKSSHSLIHGDRNNYLAWYVQKPGRSPQLLIYLASSRASGVPDRFSGSGSDKDFTLKISRVETEDVGTYYCMQGRESPWTFGQGTKVDIKDKTHTASELTQDPAVSVALKQTVTITCRGDSLRSHYASWYQKKPGQAPVLLFYGKNNRPSGIPDRFSGSASGNRASLTITGAQAEDEADYYCSSRDKSGSRLSVFGGGTKLTVLDKTHTRTVAAPSVFIFPPSDEQLKSGTASVVCLLNNFYPREAKVQWKVDNALQSGNSQESVTEQDSKDSTYSLSSTLTLSKADYEKHKVYACEVTHQGLSSPVTKSFNRGEC
# heavy 1: EVRLVESGGGLVKPGGSLRLSCSASGFDFDNAWMTWVRQPPGKGLEWVGRITGPGEGWSVDYAESVKGRFTISRDNTKNTLYLEMNNVRTEDTGYYFCARTGKYYDFWSGYPPGEEYFQDWGQGTLVIVSSDKTHTQVHLTQSGPEVRKPGTSVKVSCKAPGNTLKTYDLHWVRSVPGQGLQWMGWISHEGDKKVIVERFKAKVTIDWDRSTNTAYLQLSGLTSGDTAVYYCAKGSKHRLRDYALYDDDGALNWAVDVDYLSNLEFWGQGTAVTVSSDKTHTASTKGPSVFPLAPSSKSTSGGTAALGCLVKDYFPEPVTVSWNSGALTSGVHTFPAVLQSSGLYSLSSVVTVPSSSLGTQTYICNVNHKPSNTKVDKKVEPKSCDKTHTCPPCPAPELLGGPSVFLFPPKPKDTLMISRTPEVTCVVVDVSHEDPEVKFNWYVDGVEVHNAKTKPREEQYNSTYRVVSVLTVLHQDWLNGKEYKCKVSNKALPAPIEKTISKAKGQPREPQVYTLPPCRDELTKNQVSLWCLVKGFYPSDIAVEWESNGQPENNYKTTPPVLDSDGSFFLYSKLTVDKSRWQQGNVFSCSVLHEALHSHYTQKSLSLSPG
# heavy 2: RAHLVQSGTAMKKPGASVRVSCQTSGYTFTAHILFWFRQAPGRGLEWVGWIKPQYGAVNFGGGFRDRVTLTRDVYREIAYMDIRGLKPDDTAVYYCARDRSYGDSSWALDAWGQGTTVVVSAASTKGPSVFPLAPSSKSTSGGTAALGCLVKDYFPEPVTVSWNSGALTSGVHTFPAVLQSSGLYSLSSVVTVPSSSLGTQTYICNVNHKPSNTKVDKKVEPKSCDKTHTCPPCPAPELLGGPSVFLFPPKPKDTLMISRTPEVTCVVVDVSHEDPEVKFNWYVDGVEVHNAKTKPREEQYNSTYRVVSVLTVLHQDWLNGKEYKCKVSNKALPAPIEKTISKAKGQPREPQVCTLPPSRDELTKNQVSLSCAVKGFYPSDIAVEWESNGQPENNYKTTPPVLDSDGSFFLVSKLTVDKSRWQQGNVFSCSVLHEALHSHYTQKSLSLSPG
# light 2: YIHVTQSPSSLSVSIGDRVTINCQTSQGVGSDLHWYQHKPGRAPKLLIHHTSSVEDGVPSRFSGSGFHTSFNLTISDLQADDIATYYCQVLQFFGRGSRLHIKRTVAAPSVFIFPPSDEQLKSGTASVVCLLNNFYPREAKVQWKVDNALQSGNSQESVTEQDSKDSTYSLSSTLTLSKADYEKHKVYACEVTHQGLSSPVTKSFNRGEC
# B5: Binding Protein 3 (protein)
# light 1: ASELTQDPAVSVALKQTVTITCRGDSLRSHYASWYQKKPGQAPVLLFYGKNNRPSGIPDRFSGSASGNRASLTITGAQAEDEADYYCSSRDKSGSRLSVFGGGTKLTVLDKTHTDFVLTQSPHSLSVTPGESASISCKSSHSLIHGDRNNYLAWYVQKPGRSPQLLIYLASSRASGVPDRFSGSGSDKDFTLKISRVETEDVGTYYCMQGRESPWTFGQGTKVDIKDKTHTRTVAAPSVFIFPPSDEQLKSGTASVVCLLNNFYPREAKVQWKVDNALQSGNSQESVTEQDSKDSTYSLSSTLTLSKADYEKHKVYACEVTHQGLSSPVTKSFNRGEC
# heavy 1: QVHLTQSGPEVRKPGTSVKVSCKAPGNTLKTYDLHWVRSVPGQGLQWMGWISHEGDKKVIVERFKAKVTIDWDRSTNTAYLQLSGLTSGDTAVYYCAKGSKHRLRDYALYDDDGALNWAVDVDYLSNLEFWGQGTAVTVSSDKTHTEVRLVESGGGLVKPGGSLRLSCSASGFDFDNAWMTWVRQPPGKGLEWVGRITGPGEGWSVDYAESVKGRFTISRDNTKNTLYLEMNNVRTEDTGYYFCARTGKYYDFWSGYPPGEEYFQDWGQGTLVIVSSDKTHTASTKGPSVFPLAPSSKSTSGGTAALGCLVKDYFPEPVTVSWNSGALTSGVHTFPAVLQSSGLYSLSSVVTVPSSSLGTQTYICNVNHKPSNTKVDKKVEPKSCDKTHTCPPCPAPELLGGPSVFLFPPKPKDTLMISRTPEVTCVVVDVSHEDPEVKFNWYVDGVEVHNAKTKPREEQYNSTYRVVSVLTVLHQDWLNGKEYKCKVSNKALPAPIEKTISKAKGQPREPQVYTLPPCRDELTKNQVSLWCLVKGFYPSDIAVEWESNGQPENNYKTTPPVLDSDGSFFLYSKLTVDKSRWQQGNVFSCSVLHEALHSHYTQKSLSLSPG
# heavy 2: RAHLVQSGTAMKKPGASVRVSCQTSGYTFTAHILFWFRQAPGRGLEWVGWIKPQYGAVNFGGGFRDRVTLTRDVYREIAYMDIRGLKPDDTAVYYCARDRSYGDSSWALDAWGQGTTVVVSAASTKGPSVFPLAPSSKSTSGGTAALGCLVKDYFPEPVTVSWNSGALTSGVHTFPAVLQSSGLYSLSSVVTVPSSSLGTQTYICNVNHKPSNTKVDKKVEPKSCDKTHTCPPCPAPELLGGPSVFLFPPKPKDTLMISRTPEVTCVVVDVSHEDPEVKFNWYVDGVEVHNAKTKPREEQYNSTYRVVSVLTVLHQDWLNGKEYKCKVSNKALPAPIEKTISKAKGQPREPQVCTLPPSRDELTKNQVSLSCAVKGFYPSDIAVEWESNGQPENNYKTTPPVLDSDGSFFLVSKLTVDKSRWQQGNVFSCSVLHEALHSHYTQKSLSLSPG
# light 2: YIHVTQSPSSLSVSIGDRVTINCQTSQGVGSDLHWYQHKPGRAPKLLIHHTSSVEDGVPSRFSGSGFHTSFNLTISDLQADDIATYYCQVLQFFGRGSRLHIKRTVAAPSVFIFPPSDEQLKSGTASVVCLLNNFYPREAKVQWKVDNALQSGNSQESVTEQDSKDSTYSLSSTLTLSKADYEKHKVYACEVTHQGLSSPVTKSFNRGEC
# How the values were obtained:
# [1] = molecular target: T1, MPER binding peptide (Acetyl-[…]-Ttds-Lys-(Biotin)-NH2) (HIV-1)
# [2] = molecular target: panel of 208 different HIV-1 Env-pseudotyped viruses; experiment: cell-based or functional assay
# [3] = molecular target: 20 pseudotyped viruses representing 10 different HIV-1 clades; experiment: cell-based or functional assay
# [4] = molecular target: 20 pseudotyped viruses representing 10 different HIV-1 clades; experiment: cell-based or functional assay; remark: listed apart in the source
# [5] = molecular target: T1, MPER binding peptide …; experiment: SPR (Biacore) with the MPER binding peptide
Binder,Ka [1] [M⁻¹],Kd [1] [nM],koff [1] [s⁻¹],kon [1] [M⁻¹ s⁻¹],Geometric Mean (IC80) [2] [µg/mL],Median IC80 [2] [µg/mL],Geometric Mean (IC80) [3] [µg/mL],Median IC80 [3] [µg/mL],Geometric Mean (IC80) [4] [µg/mL],Median IC80 [4] [µg/mL],fold higher affinity than the MPER antibody [5] [fold]
B1,5.35e+07,18.7,0.00109,58500,1.34,1.69,–,–,–,–,–
B2,–,–,–,–,–,–,0.039,0.051,–,–,–
B3,–,–,–,–,0.063,0.037,–,–,0.094,0.06,–
B4,1.65e+08,6.05,0.000697,115000,0.028,0.026,–,–,0.222,0.375,3.1
B5,6e+07,16.7,0.000779,46700,0.051,0.045,–,–,0.287,0.469,–
